Measured values: article PMC6589784
Read-outs that look alike come from different tables or passages of the source.

What was measured:
[1] = target: Mg-ATP-actin (skeletal muscle actin, assembled into filaments) (rabbit or chicken) (UniProt P68135); experiment: single-molecule two-color TIRFM
[2] = target: Mg-ATP-actin (skeletal muscle actin, assembled into filaments) (rabbit or chicken) (UniProt P68135); experiment: single-molecule two-color TIRFM; remark: listed apart in the source
[3] = target: Mg-ATP-actin (skeletal muscle actin, assembled into filaments) (rabbit or chicken) (UniProt P68135); experiment: single-molecule two-color TIRFM; remark: listed apart in the source
[4] = target: Mg-ATP-actin (skeletal muscle actin, assembled into filaments) (rabbit or chicken) (UniProt P68135); experiment: bulk seeded pyrene actin assembly
[5] = target: Mg-ATP-actin (skeletal muscle actin, assembled into filaments) (rabbit or chicken) (UniProt P68135); experiment: single-color TIRFM of actin elongation rates

Q: Which processive run length tau, 2-filament trailing barbed ends [1] does the source give for MBP-SNAP(549)-EnaΔLΔCC-Foldon here?
A: 8.9 s

Q: And the processive run length tau, 3- or more filament trailing barbed ends [1]?
A: 11.2 s

Q: For MBP-SNAP(549)-EnaΔLΔCC-GCN4, which processive run length tau, 2-filament trailing barbed ends [1] is on record?
A: 1.5 s

Q: What does the source list for “SNAP(549)-EnaΔL (from UniProt Q8T4F7 1-980) (natural protein)”?
A: average processive run length tau, leading barbed ends [1]: 8.4 s; average processive run length tau, trailing barbed ends [1]: 23.7 s; average residence time tau, single filament barbed ends [1]: 10 s; average residence time tau, trailing barbed ends of a two-filament bundle [1]: 21.7 s; average residence time tau, single filament barbed ends [2]: 8.9 s; average residence time tau, trailing barbed ends of a two-filament bundle [2]: 16.8 s; average processive run length tau, leading barbed ends [3]: 10.1 s; average processive run length tau, trailing barbed ends [3]: 28.1 s

Q: With SNAP(549)-UNC-34 (natural protein) as the substance, how does the average residence time tau, single filament barbed ends [1] read?
A: 1.2 s

Q: What about the processive run length tau, trailing barbed ends of 2-filament fascin bundles [1] of the same substance?
A: 2.9 s

Q: “SNAP(549)-VASP (from UniProt P50552 1-380) (natural protein)” was tested. Which average residence time tau, single filament barbed ends [1] did it give?
A: 1 s

Q: And the processive run length tau, trailing barbed ends of 2-filament fascin bundles [1]?
A: 2.6 s

Q: How did the Kd [4] turn out when “unlabeled EnaΔL (from UniProt Q8T4F7 1-980) (natural protein)” was run?
A: 0.7 nM

Q: What about the Kd [5] of the same substance?
A: 3.2 nM

Q: Which results are given for unlabeled UNC-34 (natural protein)?
A: Kd [4]: 10.2 nM; Kd [5]: 6.7 nM

Q: “unlabeled VASP (from UniProt P50552 1-380) (natural protein)” was tested. Which Kd [4] did it give?
A: 10.8 nM

Q: And the Kd [5]?
A: 12.2 nM
